In US20230041030A1:

Target: HLA-A*0201 MART-1 peptide complex on peptide-loaded K562 cells (human)
Assay: cell-based or functional assay

CD25 Fold Change (TCR-transduced CD8+ Jurkat KO cells co-cultured with peptide-loaded K562 APCs): 235 fold
CD69 Fold Change (TCR-transduced CD8+ Jurkat KO cells co-cultured with peptide-loaded K562 APCs): 45 fold
IL2 Fold Change (TCR-transduced CD8+ Jurkat KO cells co-cultured with peptide-loaded K562 APCs): 33 fold
Substance: MART-1/Melan-A specific TCR DMF5
